Where “and” joins values, the source holds several entries; their conditions need not be identical. Equal entries are not always repeated.

For the assay, the target named is Recombinant Halo-tagged Synaptophysin labeled with Alexa488 (mouse) (UniProt Q62277). Nature of the assay: single-molecule TIRF step photobleaching.

Broadly, the stoichiometry N is the number of molecules, sites or subunits per partner or assembly. Take “Recombinant Halo-tagged Synaptophysin labeled with Alexa488 (from UniProt Q62277 1-314) (natural protein)”: the stoichiometry N is 3 copies and 5 copies.

Values taken from article PMC10349951.
